Read-outs that look alike come from different tables or passages of the source.
Tests used:
[1] = target: T1, glandular kallikrein (porcine pancreatic kallikrein) (Sus scrofa, UniProt P00752); assay: Inhibition of serine proteinases: glandular kallikrein; type: biochemical; details: Example 8; enzyme 1 U/ml, substrate S2266 0.6 mM, 30 min incubation; read-out: Apparent Ki (nM), Gl. kallikrein
T1 construct: purchased Sigma Chemical Co (St. Louis, Mo., U.S.A.)
Protocol: (§1) KFN 1593 was purified from yeast culture medium as described in example 1. The concentration of KFN 1593 was determined using 1% E280 nm =8.3 and Mw =6500. Porcine trypsin was from Novo Nordisk (Bagsv.ae butted.rd, Denmark), bovine chymotrypsin (TLCK treated) and porcine pancreatic kallikrein was from Sigma Chemical Co (St. Louis, Mo., U.S.A.), human plasmin and human plasma kallikrein was from Kabi (Stockholm, Sweden).
(§2) Human neutrophil elastase and cathepsin G was purified from extracts of PMNs according to the method described by Baugh and Travis (Biochemistry 15 (1976) 836-843). Peptidyl nitroanilide substrates, S2251, S2586, S2266, S2302 were from Kabi (Stockholm, Sweden). M4765 and S7388 was from Sigma Chemical Co (St. Louis, Mo., U.S.A.) and FXa-1 was from NycoMed (Oslo, Norway).
(§3) Serine proteinases were incubated with various concentrations of KFN 1593 for 30 min. Substrate was then added and residual proteinase activity was measured at 405 nm.
(§4) The three TFPI (domain II) variants were purified from yeast culture medium. Their concentrations were determined from the absorbance at 214 nm using BPTI as a standard. The final concentration was determined by titration with trypsin. Porcine trypsin and human recombinant proteins, factor VIIa, activated protein C (ACP), and tPA were obtained from Novo Nordisk A/S (Bagsvaerd, Denmark), so was human thrombin. Bovine chymotrypsin and glandular kallikrein were obtained from Sigma Chemical Co. (St. Louis, Mo., U.S.A.). Truncated human recombinant tissue factor was obtained from Corvas (San Diego, Calif., U.S.A.). Human neutrophil cathepsin G was purified from extracts of PMNs according to the method described by Baugh and Travis (Biochemistry 15 (1976) 836-843). Human plasmin was from Kabi (Stockholm, Sweden), uPA was from Serono (Milan, Italy), human factor Xa was a gift from Dr. W. Kisiel (Albuquerque, N.M., U.S.A.), and human plasma kallikrein was a gift from Dr. I Schousboe (Copenhagen, Denmark).
(§5) Peptidyl nitroanilide substrates, S2251, S2302, S2266, S2586, S2288, S2444, S2366, and S2238 were from Kabi (Stockholm, Sweden). S7388 and M4765 were from Sigma Chemical Co. (St. Louis, Mo., U.S.A.) and FXa-1 was from Nycomed (Oslo, Norway).
(§6) Serine proteinases were incubated with various concentrations of Kunitz Domain variant for 30 min. Substrate (0.6 mM) was then added and residual proteinase activity was measured at 405 nm.

Porcine trypsin = target: T2, Porcine trypsin (Sus scrofa, UniProt P00761); assay: Inhibition of serine proteinases: trypsin, peptidyl nitroanilide substrate, residual activity at 405 nm; type: biochemical; details: enzyme 10 nM, read-out: Apparent Ki (nM), Trypsin
T2 construct: purchased Novo Nordisk (Bagsvaerd, Denmark; the applicant itself)
T2 sequence (P00761 9-231): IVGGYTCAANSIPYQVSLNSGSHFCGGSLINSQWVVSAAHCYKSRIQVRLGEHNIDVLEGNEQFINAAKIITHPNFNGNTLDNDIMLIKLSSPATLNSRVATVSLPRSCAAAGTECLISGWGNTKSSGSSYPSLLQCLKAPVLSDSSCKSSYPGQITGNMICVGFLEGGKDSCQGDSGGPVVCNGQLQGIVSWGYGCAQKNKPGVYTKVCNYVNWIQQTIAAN
Protocol: as §1, §2, §3, §4, §5, §6
(§7) The four variants were purified from yeast culture medium. Their concentrations were determined from the absorbance at 214 nm using BTPI as a standard. Porcine trypsin was obtained from Novo Nordisk A/S (Bagsvaerd, Denmark, bovine chymotrypsin (TLCK treated) was obtained from Sigma Chemical Co. (St. Louis, Mo., U.S.A.). Truncated human recombinant tissue factor was obtained from Corvas (San Diego, Calif., U.S.A.). Human plasmin was from Kabi (Stockholm, Sweden). Human neutrophil cathepsin G and elastase were purified from extracts of PMNs according to the method described by Baugh and Travis (Biochemistry 15 (1976) 836-843).
(§8) Peptidyl nitroanilide substrates, S2251, S2586 were from Kabi (Stockholm, Sweden). S7388 and M4765 were from Sigma Chemical Co. (St. Louis, Mo., U.S.A.).
(§9) Serine proteinases were incubated with various concentrations of the variants for 30 min. Substrate ([…]) was then added and residual proteinase activity was measured at 405 nm.

Human plasmin [2] = target: T3, Human plasmin (Homo sapiens, UniProt P00747); assay: Inhibition of serine proteinases: plasmin; type: biochemical; design: human plasmin and human plasma kallikrein was from Kabi (Stockholm, Sweden); purchased Kabi (Stockholm, Sweden); details: enzyme 4 nM, 30 min incubation, read-out: Apparent Ki (nM), Plasmin
Protocol: as §1, §2, §3, §4, §5, §6, §7, §8, §9
Target sequence in this assay (P00747 581-810 limits assumed): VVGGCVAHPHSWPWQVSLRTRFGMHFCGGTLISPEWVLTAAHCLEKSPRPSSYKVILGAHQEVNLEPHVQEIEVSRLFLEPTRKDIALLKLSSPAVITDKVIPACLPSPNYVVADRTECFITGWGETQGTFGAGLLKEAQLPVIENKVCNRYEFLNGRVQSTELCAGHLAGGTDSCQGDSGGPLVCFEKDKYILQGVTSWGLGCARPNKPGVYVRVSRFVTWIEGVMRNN
Target sequence in this assay (P00747 97-580 limits assumed): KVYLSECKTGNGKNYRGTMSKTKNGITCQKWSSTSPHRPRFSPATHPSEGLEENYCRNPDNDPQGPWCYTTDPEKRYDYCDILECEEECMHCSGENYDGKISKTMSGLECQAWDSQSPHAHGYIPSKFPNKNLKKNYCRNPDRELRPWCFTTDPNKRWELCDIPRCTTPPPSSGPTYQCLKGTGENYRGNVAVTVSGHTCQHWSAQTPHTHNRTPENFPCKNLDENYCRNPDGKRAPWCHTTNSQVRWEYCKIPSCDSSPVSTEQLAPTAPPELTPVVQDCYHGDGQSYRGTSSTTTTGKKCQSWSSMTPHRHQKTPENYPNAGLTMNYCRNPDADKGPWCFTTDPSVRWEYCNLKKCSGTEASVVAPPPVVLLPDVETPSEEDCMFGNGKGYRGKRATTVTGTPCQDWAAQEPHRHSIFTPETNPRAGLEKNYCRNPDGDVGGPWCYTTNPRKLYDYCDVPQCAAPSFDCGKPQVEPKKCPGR

plasma kallikrein [3] = target: T4, plasma kallikrein (Homo sapiens, UniProt P03952); assay: Inhibition of serine proteinases: plasma kallikrein; type: biochemical; details: Example 8; enzyme 3 nM, substrate S2302 0.6 mM, 30 min incubation; read-out: Apparent Ki (nM), Pl. kallikrein
Protocol: as §1, §2, §3, §4, §5, §6
Target sequence in this assay (P03952 391-638 limits assumed): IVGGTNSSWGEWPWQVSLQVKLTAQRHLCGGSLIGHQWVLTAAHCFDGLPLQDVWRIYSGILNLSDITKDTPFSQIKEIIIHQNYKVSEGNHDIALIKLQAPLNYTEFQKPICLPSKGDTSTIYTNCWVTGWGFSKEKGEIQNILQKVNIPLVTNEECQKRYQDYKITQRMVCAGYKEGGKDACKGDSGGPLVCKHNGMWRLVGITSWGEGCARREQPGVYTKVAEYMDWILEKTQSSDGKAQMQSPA
Target sequence in this assay (P03952 20-390 limits assumed): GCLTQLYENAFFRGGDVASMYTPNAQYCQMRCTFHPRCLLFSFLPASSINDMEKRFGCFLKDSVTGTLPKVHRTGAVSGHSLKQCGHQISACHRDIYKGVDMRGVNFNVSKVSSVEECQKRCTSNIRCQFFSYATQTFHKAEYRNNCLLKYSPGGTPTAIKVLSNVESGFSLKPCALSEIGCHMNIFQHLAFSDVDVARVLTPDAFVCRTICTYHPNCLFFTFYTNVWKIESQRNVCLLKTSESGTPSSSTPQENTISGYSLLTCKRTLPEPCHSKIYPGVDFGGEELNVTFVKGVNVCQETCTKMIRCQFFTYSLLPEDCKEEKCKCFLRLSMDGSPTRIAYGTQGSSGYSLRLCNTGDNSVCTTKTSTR

Bovine chymotrypsin = target: T5, Bovine chymotrypsin (Bos taurus, UniProt P00766); assay: Inhibition of serine proteinases: chymotrypsin; type: biochemical; details: enzyme 2.5 nM, substrate S2586 0.6 mM, 30 min incubation
T5 construct: purchased Sigma Chemical Co. (St. Louis, Mo., U.S.A.)
Protocol: as §4, §5, §6, §7, §8, §9

[4] = target: T6, Human neutrophil cathepsin G (Homo sapiens, UniProt P08311); assay: Inhibition of serine proteinases: neutrophil cathepsin G; type: biochemical; details: Example 9; enzyme 50 nM, substrate S7388, 30 min incubation; read-out: Apparent Ki (nM), N. cathepsin G
T6 construct: Human neutrophil cathepsin G was purified from extracts of PMNs; from tissue; host or cells: extracts of human polymorphonuclear leukocytes (PMNs), method of Baugh and Travis
T6 sequence (P08311 21-255): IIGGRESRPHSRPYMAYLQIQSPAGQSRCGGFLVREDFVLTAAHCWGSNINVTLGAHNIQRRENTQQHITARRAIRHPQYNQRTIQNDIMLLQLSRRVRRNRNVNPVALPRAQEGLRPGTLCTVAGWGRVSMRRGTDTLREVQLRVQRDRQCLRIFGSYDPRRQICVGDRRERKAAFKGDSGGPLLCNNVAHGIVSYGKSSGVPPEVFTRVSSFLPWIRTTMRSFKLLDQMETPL
Protocol: as §1, §2, §3, §4, §5, §6, §7, §8, §9

[5] = target: T7, Human neutrophil elastase (Homo sapiens, UniProt P08246); assay: Inhibition of serine proteinases: neutrophil elastase; type: biochemical; details: Example 9; for Ki: enzyme 4 nM, substrate M4765, 30 min incubation, read-out: Apparent Ki (nM), N. elastase
T7 construct: Human neutrophil elastase and cathepsin G was purified from extracts of PMNs; from tissue; host or cells: extracts of human polymorphonuclear leukocytes (PMNs), method of Baugh and Travis
T7 sequence (P08246 30-267): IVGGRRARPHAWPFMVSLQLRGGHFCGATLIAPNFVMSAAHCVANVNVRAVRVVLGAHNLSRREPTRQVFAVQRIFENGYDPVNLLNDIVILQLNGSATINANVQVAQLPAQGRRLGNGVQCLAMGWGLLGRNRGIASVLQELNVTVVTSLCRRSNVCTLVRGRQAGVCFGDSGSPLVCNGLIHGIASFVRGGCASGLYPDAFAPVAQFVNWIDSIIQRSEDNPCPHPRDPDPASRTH
Protocol: as §1, §2
Serine proteinases were incubated with various concentrations of KFN 1593 for 30 min. Substrate was then added and residual proteinase activity was measured at 405 nm. […]
as §7, §8, §9

plasma kallikrein [6] = target: T4, plasma kallikrein; assay: apparent Ki; 3 nM plasma kallikrein, substrate S2302, 30 min preincubation, residual activity at 405 nm
[7] = target: bovine chymotrypsin (TLCK treated) (bovine) (UniProt P00766); assay: apparent Ki; 2.5 nM chymotrypsin, substrate S2586, 30 min preincubation, residual activity at 405 nm
Human plasmin [8] = target: T3, Human plasmin; assay: apparent Ki; 4 nM plasmin, substrate S2251, 30 min preincubation, residual activity at 405 nm
[9] = target: glandular kallikrein (as used in Example 8) (Sus scrofa (Pig)) (UniProt P00752); assay: apparent Ki; 1 U/ml glandular kallikrein, substrate S2266, 30 min preincubation, residual activity at 405 nm
[10] = target: bovine chymotrypsin (TLCK treated) (bovine) (UniProt P00766)
Human plasmin [11] = target: T3, Human plasmin
plasma kallikrein [12] = target: T4, plasma kallikrein
[13] = target: Porcine trypsin (porcine) (UniProt P00761)
[14] = target: glandular kallikrein (as used in Example 8) (Sus scrofa (Pig)) (UniProt P00752)
[15] = target: Porcine trypsin (porcine) (UniProt P00761); assay: apparent Ki; 10 nM trypsin, substrate S2251, 30 min preincubation, residual activity at 405 nm
[16] = target: Human neutrophil elastase (human) (UniProt P08246); assay: apparent Ki; 4 nM neutrophil elastase, substrate M4765, 30 min preincubation, residual activity at 405 nm
[17] = target: bovine chymotrypsin (TLCK treated) (bovine) (UniProt P00766); remark: listed apart in the source
[18] = target: Human neutrophil elastase (human) (UniProt P08246)
[19] = Example 8, substrate S2251 0.6 mM, 30 min incubation
[20] = Example 8, substrate S2251 0.6 mM
[21] = Example 8, read-out: Apparent Ki (nM), chymotrypsin
[22] = Example 9, substrate S2251, 30 min incubation
[23] = Example 9, read-out: Apparent Ki (nM), Chymotrypsin

T1 sequence (P00752 8-246): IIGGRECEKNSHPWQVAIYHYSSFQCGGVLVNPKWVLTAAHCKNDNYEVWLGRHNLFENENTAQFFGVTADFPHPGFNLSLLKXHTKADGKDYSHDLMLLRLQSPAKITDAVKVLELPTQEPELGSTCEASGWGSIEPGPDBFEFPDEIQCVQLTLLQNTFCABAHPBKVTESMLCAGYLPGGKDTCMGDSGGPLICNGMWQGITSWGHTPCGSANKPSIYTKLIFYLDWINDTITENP

Substance: [R15K, G16A, Y17R, T19I, L39R, E46K]-TFPI-2 [KFN 1868]
- Ki [1]: > 100 nM
- Ki (Porcine trypsin; [19]): < 1 nM
- Ki (Human plasmin [2]; [20]): 3 nM
- Ki (plasma kallikrein [3]): > 100 nM
- Ki (Bovine chymotrypsin; [21]): 20 nM

Substance: [R15L, G16A]-TFPI-2 [KFN 1893]
- Ki [4]: > 1000 nM
- Ki (Porcine trypsin; [22]): > 1000 nM
- neutrophil elastase inhibition (in words) [5]: strong inhibitors
- Ki [5]: 0.23 nM
- Ki (Human plasmin [2]; Example 9): > 1000 nM
- Ki (Bovine chymotrypsin; [23]): < 5 nM

Substance: [R15L]-TFPI-2 [KFN 1928]
- Ki [4]: > 1000 nM
- Ki (Porcine trypsin; [22]): > 1000 nM
- neutrophil elastase inhibition (in words) [5]: strong inhibitors
- Ki [5]: 2.2 nM
- Ki (Human plasmin [2]; Example 9): > 1000 nM
- Ki (Bovine chymotrypsin; [23]): < 5 nM

Substance: [R15K, G16A, Y17R, T19I]-TFPI-2 from yeast strain KFN-1811 (from UniProt P10646)
- Ki (plasma kallikrein [6]): > 100 nM
- Ki [7]: 10 nM
- Ki (Human plasmin [8]): 3 nM
- Ki [9]: > 100 nM
- apparent Ki [10]: 10 nM
- apparent Ki (Human plasmin [11]): 3 nM
- apparent Ki (plasma kallikrein [12]): > 100 nM
- apparent Ki [13]: < 1 nM
- apparent Ki [14]: > 100 nM
- Ki [15]: < 1 nM

Substance: [R15K, G16A, Y17R, T19I, L39R]-TFPI-2 from yeast strain KFN-1867 (from UniProt P10646)
- Ki (plasma kallikrein [6]): > 100 nM
- Ki [7]: 20 nM
- Ki (Human plasmin [8]): 3 nM
- Ki [9]: > 100 nM
- apparent Ki [10]: 20 nM
- apparent Ki (Human plasmin [11]): 3 nM
- apparent Ki (plasma kallikrein [12]): > 100 nM
- apparent Ki [13]: < 1 nM
- apparent Ki [14]: > 100 nM
- Ki [15]: < 1 nM

Substance: [R15L]-TFPI-2 from yeast strain KFN-1928 (from UniProt P10646)
- Ki [16]: 2.2 nM
- Ki [7]: < 5 nM
- apparent Ki [17]: < 5 nM
- residual proteinase activity at 405 nm (apparent Ki) [18]: 2.2 nM

Substance: [R15K, G16A, Y17R, T19I, L39R, E46K]-TFPI-2 from yeast strain KFN-1868 (from UniProt P10646)
- Ki (plasma kallikrein [6]): > 100 nM
- Ki [7]: 20 nM
- Ki (Human plasmin [8]): 3 nM
- Ki [9]: > 100 nM
- apparent Ki [10]: 20 nM
- apparent Ki (Human plasmin [11]): 3 nM
- apparent Ki (plasma kallikrein [12]): > 100 nM
- apparent Ki [13]: < 1 nM
- apparent Ki [14]: > 100 nM
- Ki [15]: < 1 nM

Substance: [R15V, G16A]-TFPI-2 [KFN 1897]
- Ki [4]: > 1000 nM
- Ki (Porcine trypsin; [22]): > 1000 nM
- neutrophil elastase inhibition (in words) [5]: strong inhibitors
- Ki [5]: 0.46 nM
- Ki (Human plasmin [2]; Example 9): > 1000 nM
- Ki (Bovine chymotrypsin; [23]): > 100 nM

Substance: [R15V]-TFPI-2 [KFN 1898]
- Ki [4]: > 1000 nM
- Ki (Porcine trypsin; [22]): > 1000 nM
- neutrophil elastase inhibition (in words) [5]: strong inhibitors
- Ki [5]: 0.35 nM
- Ki (Human plasmin [2]; Example 9): > 1000 nM
- Ki (Bovine chymotrypsin; [23]): > 100 nM

Substance: [R15K, G16A, Y17R, T19I]-TFPI-2 [KFN 1811]
- Ki [1]: > 100 nM
- Ki (Porcine trypsin; [19]): < 1 nM
- Ki (Human plasmin [2]; [20]): 3 nM
- Ki (plasma kallikrein [3]): > 100 nM
- Ki (Bovine chymotrypsin; [21]): 10 nM

Substance: [R15V]-TFPI-2 from yeast strain KFN-1898 (from UniProt P10646)
- Ki [16]: 0.35 nM
- apparent Ki [18]: 0.35 nM

Substance: [R15K, G16A, Y17R, T19I, L39R]-TFPI-2 [KFN 1867]
- Ki [1]: > 100 nM
- Ki (Porcine trypsin; [19]): < 1 nM
- Ki (Human plasmin [2]; [20]): 3 nM
- Ki (plasma kallikrein [3]): > 100 nM
- Ki (Bovine chymotrypsin; [21]): 20 nM

Substance: [R15V, G16A]-TFPI-2 from yeast strain KFN-1897 (from UniProt P10646)
- Ki [16]: 0.46 nM
- apparent Ki [18]: 0.46 nM

— patent US5576294A, “Human Kunitz-type protease inhibitor variant” (Novo Nordisk A/S, priority 1992, dated 1996)
